# Variants at the floor of the assay were thinned out.
# B1: TPR 5TU (parent)
# chain: GGAUCUUCUCGAUCUAACAAAAAAGACAAAUCUGCCACAAAGCUUGAGAGCAUCUUCGGAUGCAGAGGCGGCAGCCUUCGGUGGCGCGAUAGCGCCAACGUUCUCAACUAUGACACGCAAAACGCGUGCUCCGUUGAAUGGAGUUUAUCAUG
# Variants of: B1
# Experiment: polymerase ribozyme fitness, log enrichment relative to wild type (log ratio); higher = more active; in vitro selection for triplet polymerase activity
# Method in brief: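 After PCR construction and transcription, each subunit's mutant library from a heterodimeric triplet polymerase ribozyme was annealed with a biotinylated primer, the partner subunit and triplets. Incubation was frozen, at −7 °C, and extended constructs were gel-excised, bound to streptavidin beads and amplified by RT-PCR, in one selection round done in triplicate. Fitness is the logarithm of a genotype's enrichment divided by that of the wild type, from inverse-variance-weighted replicate averages of Illumina-sequenced inputs and outputs. The base of the logarithm is 2, and genotypes needed ≥10 input reads and ≥1 read per output.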
row,Variant,polymerase ribozyme fitness (log ratio)
1,U15C A20G A97G G140A,-3.64
2,A16G A20C A22C G25A A37U A40C C75U C96U U130G A138U U145G,≤ -4.2
3,U15G A98G A122C G124U,-1.76
4,U15G C72U C87A U134A A150C U151G,≤ -4.2
5,A16C A22U G62A G74A G81C A106G G141C,≤ -4.2
6,U15C A21C U61A G62C C95A U104A A138U,≤ -4.2
7,A16C U101G,-0.303
8,U15G A22U U56A A66C G117A A138G U146C,≤ -4.2
9,U15C U145C A150G,-0.684
10,A16G A23G A37U G86A U135A,≤ -4.2
11,U15A G50U C95U C99G C105U A115G A150C,≤ -4.2
12,A16C A26G C35A A52G C87U,-3.98
13,U15A A47C G48C G58C C125U G140A,≤ -4.2
14,U15A U145C,0.0727
15,U15G C18A A23C A60G U104G C123G,≤ -4.2
16,U15A A26C,-1.44
17,A16G A21C G48C C54A G58U C93U A122G,-3.83
18,A16C C85U A106U G126A,-3.28
19,C14U U135C,-3.88
20,U15C A23C A30G U44A G70A C87A G141C,≤ -4.2
21,U15A A29G U78A G88A G126U U135G U148G,≤ -4.2

row,Variant,polymerase ribozyme fitness (log ratio)
1,A16C A24G U56C U77C G86A U104G U139A A142G,≤ -4.2
2,A16C A150U,-0.0438
3,A16G A28G G59A G80A G83C C87U,≤ -4.2
4,U15G A39U U82G G84A G112U,≤ -4.2
5,U15G A28G C79A G124U,≤ -4.2
6,U15G C51A A52C C69U C85A,≤ -4.2
7,U15C C38U G86U A91U G126U U134G A142G,≤ -4.2
8,U15G A21U C85U A121U A138G,-4.04
9,U15A A22G C36A C72U C85U C132U,≤ -4.2
10,U15A A20G U44A A121C G136U,≤ -4.2
11,U15G G46C C93A C95U,≤ -4.2
12,A16C G84A C105G C114U C125A U144A U151G,≤ -4.2
13,A16C A17G G58U C87A C93A,≤ -4.2
14,U15G A52U,-1.59
15,U15A A20C G59A A60U C93G C105U G133U,≤ -4.2
16,A16C A91C U101C,≤ -4.2
17,A16C U31C G50A G86A,-3.16
18,U15G C51U A98U A115G G136A,-2.29
19,U15C C54A G62A U78A G88C A113C A150U,≤ -4.2
20,U15G G92U A147U,0.901
21,U15A C63U U151A,-3.9

row,Variant,polymerase ribozyme fitness (log ratio)
1,U15A C57U C63A G68A C87U A122U,≤ -4.2
2,U15C A22C C36A A106G G143A,≤ -4.2
3,U15G C69A C96U,-1.09
4,U15A A40C,0.538
5,A16C C32U C72G C75A G86C C87G C99U A107U A120U G124U,≤ -4.2
6,U15G A20U C54U C85G G94U U104C,-2.12
7,A16C A19U A73G C87A U148G G152U,≤ -4.2
8,U15A C51U G86U,-1.69
9,A16C G88A C116G,-4.19
10,U15A A39G U53A A73U C85U G124U U134C U135C,≤ -4.2
11,U15G C93U,-2.61
12,U15C A47C C54U A89U C95G,-2.01
13,A16C A20G A24U A40G G48U G58U U77C C85U,≤ -4.2
14,U15A G59U C79G C93A U134A,≤ -4.2
15,U15G G25U,-3.22
16,U15G C27U G84A,-1.78
17,A16G A29U U45A C54G C87G C125G,≤ -4.2
18,A16C G59A C85G G126U,-2.76
19,A16G A24U A52C C85A C95U,≤ -4.2
20,U15G A28G A29U C36G A40G G94U U102C A122G U139G,≤ -4.2
21,U15C A24G C76U U145A,≤ -4.2

row,Variant,polymerase ribozyme fitness (log ratio)
1,A16C G59C,-0.987
2,A16G A24U G46U C85G A106C U109A C114U C118G A120G,≤ -4.2
3,A16C A37U G58A G80U C85G C93G A150G,≤ -4.2
4,U15C A37U C118U,-0.404
5,A16C A21G C54A C95A,-3.07
6,A16G A17G A19C G50A,0.928
7,U15G C18G G50C U53G G92A U148G,≤ -4.2
8,U15G C35G G50C C96G G143U,≤ -4.2
9,U15G A37U U55A U56C C87G C95U A106G G136A U145G,≤ -4.2
10,A16G A23U C72A C87A C93U G126A,≤ -4.2
11,U15G G42A C75A G83U A122U G128A,≤ -4.2
12,A16G A20U C118U A137U,≤ -4.2
13,A16C C76G C85U G133C C149A,≤ -4.2
14,U15G A37C A47C C95U,-1.64
15,U15G G50U U61A C93G C105U A107G,≤ -4.2
16,U15G G34A C75A A150U,≤ -4.2
17,U15A C27G U55A C57G G94U C105U G136A G143U,≤ -4.2
18,A16G A26U C85A C105G C114U G141C U151C,≤ -4.2
19,U15A A29C C38U A119U G126A U144A C149G,≤ -4.2
20,A16C G62C,-2.47
